Source: patent US20050019751A1

Target: human SR-BI with 12 vector-derived amino acids added to the carboxyl terminal (pcDNA3-SR-BI construct of Example 3) (human) (UniProt Q8WTV0)
Test: FACS dot plot, BHK-21 cells transiently transfected with pcDNA3-SR-BI

UniProt Q8WTV0, sequence (Q8WTV0 other isoform, or with tags, fused parts or gaps limits assumed): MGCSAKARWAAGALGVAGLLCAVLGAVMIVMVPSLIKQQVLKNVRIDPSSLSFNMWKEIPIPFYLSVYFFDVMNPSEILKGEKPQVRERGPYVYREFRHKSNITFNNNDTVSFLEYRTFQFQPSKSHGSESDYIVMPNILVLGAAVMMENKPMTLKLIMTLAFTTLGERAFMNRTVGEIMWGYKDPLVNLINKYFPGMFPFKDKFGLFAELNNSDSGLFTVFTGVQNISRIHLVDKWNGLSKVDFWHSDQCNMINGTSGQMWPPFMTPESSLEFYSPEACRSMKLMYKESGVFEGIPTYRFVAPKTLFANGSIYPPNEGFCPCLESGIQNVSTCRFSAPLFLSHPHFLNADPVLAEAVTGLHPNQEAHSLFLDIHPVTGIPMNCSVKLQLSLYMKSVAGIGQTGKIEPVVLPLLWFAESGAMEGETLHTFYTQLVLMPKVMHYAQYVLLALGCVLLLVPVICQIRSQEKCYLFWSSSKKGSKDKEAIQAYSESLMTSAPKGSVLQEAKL

“HCV E2 recombinant protein, genotype 1a (strain H), amino acids 384-661 of the HCV polyprotein with C-terminal 6 His tag (from UniProt P27958 384-661) (ligand)” was tested, and the percent of transfected cells that bind E2 was 10%.
